Source: patent US20230212549A1 (3B PHARMACEUTICALS, published 2023)
Numbered stars: 1 amine (or outer) side, 2 acyl side, 3 side chain; on linkers, the order of the positions; unused ones are H or OH. Bridge positions count the residues as written; N and C are the ends. Square brackets hold non-standard residues; d marks the D form. Primed or numbered codes have the meaning given here. * marks the point of attachment. tMeBn(DOTA-PP) = 1,3,5-trimethylbenzylidene, two thioethers to Cys, third CH2 bound to one N of piperazine whose other N bears DOTA, O=C(O)CN1CCN(CC(=O)O)CCN(CC(=O)N2CCN(Cc3cc(C[*:1])cc(C[*:2])c3)CC2)CCN(CC(=O)O)CC1; Ttds″ = 1,13-diamino-4,7,10-trioxatridecan-succinamic acid spacer, O=C(CCC(=O)[*:2])NCCCOCCOCCOCCCN[*:1]; TBMB(SCH2CH2NH-DOTA) = O=C(O)CN1CCN(CC(=O)O)CCN(CC(=O)NCCSCc2cc(C[*:1])cc(C[*:2])c2)CCN(CC(=O)O)CC1; Ttds = 1,13-diamino-4,7,10-trioxatridecan-succinamic acid, O=C(CCC(=O)[*:2])NCCCOCCOCCOCCCN[*:1]; DOTA = O=C(O)CN1CCN(CC(=O)O)CCN(CC(=O)*)CCN(CC(=O)O)CC1; 3Lut″ = 3,5-lutidylidene (from 3,5-lutidine); mXylylene = c1cc(C[*:1])cc(C[*:2])c1; Pentanesulfonyl = CCCCCS(=O)(=O)*; Nle = CCCC[C@H](N)C(=O)O; 2Lut = 2,6-lutidylidene; Hexanoyl = CCCCCC(=O)*

How the values were obtained:
[1] = molecular target: Recombinant human FAP (R&D systems, #3715-SE) (human, UniProt Q12884 26-760); experiment: cell-based or functional assay
[2] = molecular target: T1, fibroblast activation protein (FAP) on FAP-expressing human WI-38 fibroblasts (human, UniProt Q12884 1-760); experiment: competitive FACS, WI-38 cells, vs Cy5 tracer m3; A = pIC50 >8.0
T1 construct: also called human FAP

pIC50 Category (Activity) [1]	pIC50 Category (FACS) [2]	Binder
> 8 pIC50	> 8 pIC50	Hexanoyl-CPPTQFCD-NH2 (linker 1-7 via tMeBn(InDOTA-PP); also: indium complex of DOTA, also called 3BP-3590) [Hex-[Cys(tMeBn(InDOTA-PP))-Pro-Pro-Thr-Gln-Phe-Cys]-Asp-NH2]
> 8 pIC50	> 8 pIC50	CPPTQFCD (N-term Hex; Cys1/Cys7 thioether-bridged by tMeBn carrying DOTA-AET; D-Asp8; C-term amide, also called 3BP-3681) [Hex-[Cys(tMeBn(DOTA-AET))-Pro-Pro-Thr-Gln-Phe-Cys]-asp-NH2]
> 8 pIC50	> 8 pIC50	CPPTQFX (not fully specified; N-term Hex; X7 = AET (2-aminoethanethiol, no carboxyl group); Cys1/AET7 thioether-bridged by tMeBn carrying InDOTA-AET (indium complex), also called 3BP-3713) [Hex-[Cys(tMeBn(InDOTA-AET))-Pro-Pro-Thr-Gln-Phe-AET]]
> 8 pIC50	> 8 pIC50	Hexanoyl-CPPTQFCD-NH2 (linker 1-7 via tMeBn(LuDOTA-PP); also: lutetium complex of DOTA, also called 3BP-3591) [Hex-[Cys(tMeBn(LuDOTA-PP))-Pro-Pro-Thr-Gln-Phe-Cys]-Asp-NH2]
> 8 pIC50	> 8 pIC50	Hexanoyl-CPPTEFCDHFRD[Ttds″]K(DOTA)-NH2 (linker 1-7 via mXylylene; SMILES CCCCCC(=O)N[C@H]1CSCc2cccc(c2)CSC[C@@H](C(=O)N[C@@H](CC(=O)O)C(=O)N[C@@H](Cc2c[nH]cn2)C(=O)N[C@@H](Cc2ccccc2)C(=O)N[C@@H](CCCNC(=N)N)C(=O)N[C@@H](CC(=O)O)C(=O)NCCCOCCOCCOCCCNC(=O)CCC(=O)N[C@@H](CCCCNC(=O)CN2CCN(CC(=O)O)CCN(CC(=O)O)CCN(CC(=O)O)CC2)C(N)=O)NC(=O)[C@H](Cc2ccccc2)NC(=O)[C@H](CCC(=O)O)NC(=O)[C@H]([C@@H](C)O)NC(=O)[C@@H]2CCCN2C(=O)[C@@H]2CCCN2C1=O) [Hex-[Cys(3MeBn)-Pro-Pro-Thr-Glu-Phe-Cys]-Asp-His-Phe-Arg-Asp-Ttds-Lys(DOTA)-NH2]
> 8 pIC50	> 8 pIC50	Pentanesulfonyl-CPPTQFCD-NH2 (linker 1-7 via tMeBn(DOTA-PP); SMILES CCCCCS(=O)(=O)N[C@H]1CSCc2cc(cc(CN3CCN(C(=O)CN4CCN(CC(=O)O)CCN(CC(=O)O)CCN(CC(=O)O)CC4)CC3)c2)CSC[C@@H](C(=O)N[C@@H](CC(=O)O)C(N)=O)NC(=O)[C@H](Cc2ccccc2)NC(=O)[C@H](CCC(N)=O)NC(=O)[C@H]([C@@H](C)O)NC(=O)[C@@H]2CCCN2C(=O)[C@@H]2CCCN2C1=O, also called 3BP-3692) [Pentyl-SO2-[Cys(tMeBn(DOTA-PP))-Pro-Pro-Thr-Gln-Phe-Cys]-Asp-NH2]
> 8 pIC50	> 8 pIC50	Hexanoyl-CPPTQFCD-NH2 (linker 1-7 via 2Lut, also called 3BP-3518) [Hex-[Cys(2Lut)-Pro-Pro-Thr-Gln-Phe-Cys]-Asp-NH2]
> 8 pIC50	> 8 pIC50	Hexanoyl-CPPTQFCD-NH2 (linker 1-7 via tMeBn(EuDOTA-PP); also: europium complex of DOTA, also called 3BP-3661) [Hex-[Cys(tMeBn(EuDOTA-PP))-Pro-Pro-Thr-Gln-Phe-Cys]-Asp-NH2]
> 8 pIC50	> 8 pIC50	{DOTA}-[Ttds]MCPPTEFCDHFRD-NH2 (linker 3-9 via mXylylene; SMILES CSCC[C@H](NC(=O)CCC(=O)NCCCOCCOCCOCCCNC(=O)CN1CCN(CC(=O)O)CCN(CC(=O)O)CCN(CC(=O)O)CC1)C(=O)N[C@H]1CSCc2cccc(c2)CSC[C@@H](C(=O)N[C@@H](CC(=O)O)C(=O)N[C@@H](Cc2c[nH]cn2)C(=O)N[C@@H](Cc2ccccc2)C(=O)N[C@@H](CCCNC(=N)N)C(=O)N[C@@H](CC(=O)O)C(N)=O)NC(=O)[C@H](Cc2ccccc2)NC(=O)[C@H](CCC(=O)O)NC(=O)[C@H]([C@@H](C)O)NC(=O)[C@@H]2CCCN2C(=O)[C@@H]2CCCN2C1=O) [DOTA-Ttds-Met-[Cys(3MeBn)-Pro-Pro-Thr-Glu-Phe-Cys]-Asp-His-Phe-Arg-Asp-NH2]
> 8 pIC50	> 8 pIC50	{DOTA}-[Ttds″]LCPPTEFCDHFRD-NH2 (linker 3-9 via mXylylene; SMILES CC(C)C[C@H](NC(=O)CCC(=O)NCCCOCCOCCOCCCNC(=O)CN1CCN(CC(=O)O)CCN(CC(=O)O)CCN(CC(=O)O)CC1)C(=O)N[C@H]1CSCc2cccc(c2)CSC[C@@H](C(=O)N[C@@H](CC(=O)O)C(=O)N[C@@H](Cc2c[nH]cn2)C(=O)N[C@@H](Cc2ccccc2)C(=O)N[C@@H](CCCNC(=N)N)C(=O)N[C@@H](CC(=O)O)C(N)=O)NC(=O)[C@H](Cc2ccccc2)NC(=O)[C@H](CCC(=O)O)NC(=O)[C@H]([C@@H](C)O)NC(=O)[C@@H]2CCCN2C(=O)[C@@H]2CCCN2C1=O, also called 3BP-3172) [DOTA-Ttds-Leu-[Cys(3MeBn)-Pro-Pro-Thr-Glu-Phe-Cys]-Asp-His-Phe-Arg-Asp-NH2]
> 8 pIC50	> 8 pIC50	Hexanoyl-CPPTQFCD-NH2 (linker 1-7 via TBMB(SCH2CH2NH-DOTA); SMILES CCCCCC(=O)N[C@H]1CSCc2cc(CSCCNC(=O)CN3CCN(CC(=O)O)CCN(CC(=O)O)CCN(CC(=O)O)CC3)cc(c2)CSC[C@@H](C(=O)N[C@@H](CC(=O)O)C(N)=O)NC(=O)[C@H](Cc2ccccc2)NC(=O)[C@H](CCC(N)=O)NC(=O)[C@H]([C@@H](C)O)NC(=O)[C@@H]2CCCN2C(=O)[C@@H]2CCCN2C1=O, also called 3BP-3426) [Hex-[Cys(tMeBn(DOTA-AET))-Pro-Pro-Thr-Gln-Phe-Cys]-Asp-NH2]
> 8 pIC50	> 8 pIC50	Pentanesulfonyl-CPPTQFCD-NH2 (linker 1-7 via mXylylene; SMILES CCCCCS(=O)(=O)N[C@H]1CSCc2cccc(c2)CSC[C@@H](C(=O)N[C@@H](CC(=O)O)C(N)=O)NC(=O)[C@H](Cc2ccccc2)NC(=O)[C@H](CCC(N)=O)NC(=O)[C@H]([C@@H](C)O)NC(=O)[C@@H]2CCCN2C(=O)[C@@H]2CCCN2C1=O, also called 3BP-3514) [Pentyl-SO2-[Cys(3MeBn)-Pro-Pro-Thr-Gln-Phe-Cys]-Asp-NH2]
> 8 pIC50	> 8 pIC50	Hexanoyl-CPPTQFCD-NH2 (linker 1-7 via tMeBn(DOTA-PP); SMILES CCCCCC(=O)N[C@H]1CSCc2cc(cc(CN3CCN(C(=O)CN4CCN(CC(=O)O)CCN(CC(=O)O)CCN(CC(=O)O)CC4)CC3)c2)CSC[C@@H](C(=O)N[C@@H](CC(=O)O)C(N)=O)NC(=O)[C@H](Cc2ccccc2)NC(=O)[C@H](CCC(N)=O)NC(=O)[C@H]([C@@H](C)O)NC(=O)[C@@H]2CCCN2C(=O)[C@@H]2CCCN2C1=O) [Hex-[Cys(tMeBn(DOTA-PP))-Pro-Pro-Thr-Gln-Phe-Cys]-Asp-NH2]
> 8 pIC50	> 8 pIC50	{DOTA}-[Ttds][Nle]CPPTEFCDHFRD-NH2 (linker 3-9 via mXylylene; SMILES CCCC[C@H](NC(=O)CCC(=O)NCCCOCCOCCOCCCNC(=O)CN1CCN(CC(=O)O)CCN(CC(=O)O)CCN(CC(=O)O)CC1)C(=O)N[C@H]1CSCc2cccc(c2)CSC[C@@H](C(=O)N[C@@H](CC(=O)O)C(=O)N[C@@H](Cc2c[nH]cn2)C(=O)N[C@@H](Cc2ccccc2)C(=O)N[C@@H](CCCNC(=N)N)C(=O)N[C@@H](CC(=O)O)C(N)=O)NC(=O)[C@H](Cc2ccccc2)NC(=O)[C@H](CCC(=O)O)NC(=O)[C@H]([C@@H](C)O)NC(=O)[C@@H]2CCCN2C(=O)[C@@H]2CCCN2C1=O) [DOTA-Ttds-Nle-[Cys(3MeBn)-Pro-Pro-Thr-Glu-Phe-Cys]-Asp-His-Phe-Arg-Asp-NH2]
> 8 pIC50	> 8 pIC50	Hexanoyl-CPPTQFCD-OH (linker 1-7 via TBMB(SCH2CH2NH-DOTA); SMILES CCCCCC(=O)N[C@H]1CSCc2cc(CSCCNC(=O)CN3CCN(CC(=O)O)CCN(CC(=O)O)CCN(CC(=O)O)CC3)cc(c2)CSC[C@@H](C(=O)N[C@@H](CC(=O)O)C(=O)O)NC(=O)[C@H](Cc2ccccc2)NC(=O)[C@H](CCC(N)=O)NC(=O)[C@H]([C@@H](C)O)NC(=O)[C@@H]2CCCN2C(=O)[C@@H]2CCCN2C1=O, also called 3BP-3665) [Hex-[Cys(tMeBn(DOTA-AET))-Pro-Pro-Thr-Gln-Phe-Cys]-Asp-OH]
> 8 pIC50	> 8 pIC50	Hexanoyl-CPPTQFCD-NH2 (linker 1-7 via 3Lut″, also called 3BP-3519) [Hex-[Cys(3Lut)-Pro-Pro-Thr-Gln-Phe-Cys]-Asp-NH2]
> 8 pIC50	> 8 pIC50	Hexanoyl-CPPTQFCD-NH2 (linker 1-7 via tMeBn(GaDOTA-PP); also: gallium complex of DOTA, also called 3BP-3592) [Hex-[Cys(tMeBn(GaDOTA-PP))-Pro-Pro-Thr-Gln-Phe-Cys]-Asp-NH2]
> 8 pIC50	> 8 pIC50	Hexanoyl-CPPTQFCD-NH2 (linker 1-7 via mXylylene; SMILES CCCCCC(=O)N[C@H]1CSCc2cccc(c2)CSC[C@@H](C(=O)N[C@@H](CC(=O)O)C(N)=O)NC(=O)[C@H](Cc2ccccc2)NC(=O)[C@H](CCC(N)=O)NC(=O)[C@H]([C@@H](C)O)NC(=O)[C@@H]2CCCN2C(=O)[C@@H]2CCCN2C1=O) [Hex-[Cys(3MeBn)-Pro-Pro-Thr-Gln-Phe-Cys]-Asp-NH2]
> 8 pIC50	> 8 pIC50	Ac-M[dC]PPTEFCDHFRD-NH2 (linker 2-8 via mXylylene; SMILES CSCC[C@H](NC(C)=O)C(=O)N[C@@H]1CSCc2cccc(c2)CSC[C@@H](C(=O)N[C@@H](CC(=O)O)C(=O)N[C@@H](Cc2c[nH]cn2)C(=O)N[C@@H](Cc2ccccc2)C(=O)N[C@@H](CCCNC(=N)N)C(=O)N[C@@H](CC(=O)O)C(N)=O)NC(=O)[C@H](Cc2ccccc2)NC(=O)[C@H](CCC(=O)O)NC(=O)[C@H]([C@@H](C)O)NC(=O)[C@@H]2CCCN2C(=O)[C@@H]2CCCN2C1=O, also called 3BP-3175) [Ac-Met-[cys(3MeBn)-Pro-Pro-Thr-Glu-Phe-Cys]-Asp-His-Phe-Arg-Asp-NH2]
> 8 pIC50	> 8 pIC50	Ac-[dM]CPPTEFCDHFRD-NH2 (linker 2-8 via mXylylene; SMILES CSCC[C@@H](NC(C)=O)C(=O)N[C@H]1CSCc2cccc(c2)CSC[C@@H](C(=O)N[C@@H](CC(=O)O)C(=O)N[C@@H](Cc2c[nH]cn2)C(=O)N[C@@H](Cc2ccccc2)C(=O)N[C@@H](CCCNC(=N)N)C(=O)N[C@@H](CC(=O)O)C(N)=O)NC(=O)[C@H](Cc2ccccc2)NC(=O)[C@H](CCC(=O)O)NC(=O)[C@H]([C@@H](C)O)NC(=O)[C@@H]2CCCN2C(=O)[C@@H]2CCCN2C1=O, also called 3BP-3187) [Ac-met-[Cys(3MeBn)-Pro-Pro-Thr-Glu-Phe-Cys]-Asp-His-Phe-Arg-Asp-NH2]
